Data reported in doi:10.1101/2025.03.06.641832 (bioRxiv, 2025).

Biological target: the molecule itself
Test: SEC

B1: recombinant WT influenza A NP (NΔ7NP, C-terminal His tag) (natural protein)
chain: RSYEQMETDGERQNATEIRASVGKMIGGIGRFYIQMCTELKLSDYEGRLIQNSLTIERMVLSAFDERRNKYLEEHPSAGKDPKKTGGPIYRRVDGKWMRELILYDKEEIRRIWRQANNGDDATAGLTHMMIWHSNLNDATYQRTRALVRTGMDPRMCSLMQGSTLPRRSGAAGAAVKGVGTMVMELIRMIKRGINDRNFWRGENGRRTRIAYERMCNILKGKFQTAAQRAMVDQVRESRNPGNAEFEDLIFLARSALILRGSVAHKSCLPACVYGPAVASGYDFEREGYSLVGIDPFRLLQNSQVYSLIRPNENPAHKSQLVWMACHSAAFEDLRVSSFIRGTKVVPRGKLSTRGVQIASNENMETMESSTLELRSRYWAIRTRSGGNTNQQRASSGQISIQPTFSVQRNLPFDRPTIMAAFTGNTEGRTSDMRTEIIRLMESARPEDVSFQGRGVFELSDEKAASPIVPSFDMSNEGSYFFGDNAEEYDN
B1: binds.
